Laboratory results taken from patent US20110289632.

Tested on: 3-ketomyristoyl-ACP (enzymatically prepared from ShACP)

Sequence of ShMKS2 (methylketone synthase 2 from Solanum habrochaites f glabratum), recombinant, without the transit peptide, His-tagged (chain, as listed by the source): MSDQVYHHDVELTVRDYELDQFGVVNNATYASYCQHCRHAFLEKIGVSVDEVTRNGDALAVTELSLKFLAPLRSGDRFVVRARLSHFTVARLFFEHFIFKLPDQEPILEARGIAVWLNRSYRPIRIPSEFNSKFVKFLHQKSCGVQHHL

## ShMKS2 (methylketone synthase 2 from Solanum habrochaites f glabratum), recombinant, without the transit peptide, His-tagged
  amount of 2-tridecanone formed (in vitro thioesterase activity assay, acid and heat treatment, GC-MS): approximately 3-fold higher than levels found in buffer-incubated substrate solution treated with acid and heat
